Positions count from the first letter of the chain named.

The chains are these.
B1: 17F3 anti-CDH17 recombinant antibody (human IgG1) (antibody, V domains shown)
VH: EVQLVESGGGLVKSGGSLRLSCAASGFTFSSYSLKWVRQAPGKGLEWVSSISSSSGYIYYADSVKGRFTISRDNAKNSLYLQMNSLRAEDTAMYYCARAVSTIAARPGYYYYYMDVWGKGTLVTVSS
VL: DIQMTQSPSSVSASIGDRVTITCRASQDISTWFAWYQQKPGKAPKLLIYAASTLRSGVPSRFSGSGSGTDFTLTINSLQPEDFATYYCQQANSFPLTFGGGTKVEIKR
B2: 2F9 anti-CDH17 recombinant antibody (human IgG1) (antibody, V domains shown)
VH: EVQLVESGGGVVRPGGSLRLSCAASGFTFDDYGMSWVRQAPGKGLEWVSGLSWNGGNTYYADSVKGRFTISRDNAKNSLYLQMNSLRAEDTALYYCARGSRYNWNYDAFDIWGQGTLVTVSS
VL: DIQMTQSPSSLSASIGDRVTITCRASQGIRNALGWYQQKPGKAPKRLIYAASNLQSGVPSRFSGSGSGTEFTLTISSLQPEDFATYYCLQHNSYPFTFGPGTKVEIKR
B3: 9E2 anti-CDH17 recombinant antibody (human IgG1) (antibody, V domains shown)
VH: B2 VH with D31N, L51I, S52N, N57S, K65R, N105S
VL: B2 VL with I15V, I29V, N53S
B4: 13C7 anti-CDH17 recombinant antibody (human IgG1) (antibody, V domains shown)
VH: QITLKESGPTLVKPTQTLTLTCTFSGFSLSTSGVGVGWIRQPPGKALEWLALIYWNDDKRYRPSLKNRLTITKDTSKNQVVLTMTNMDPVDTATYYCTHYGVTAPFYNWFDPWGQGTLVTVSS
VL: DIQMTQSPSSLSASVGDRVTITCRASQSITSYLNWYQQKPGKAPKLLIYAASSLQSGVPSRFSGSGSGTDFTLTISSLQPEDFATYYCQRSYSTLTFGGGTKVEIKR
B5: 19C7 anti-CDH17 recombinant antibody (human IgG1) (antibody, V domains shown)
VH: B4 VH with F27I, S32G, A51S, R62S, N67S, T75S, T98A, Y100S, V102L, T103A
VL: B4 VL with T30S, S31N, Q38L, K42N, Y49F, Y87F
B6: 1H10 anti-CDH17 recombinant antibody (human IgG1) (antibody, V domains shown)
VH: QVQLVESGGGVVQPGRSLRLSCVASGFTFSSYGMHWVRQAPGKGLEWVTFIWYDGSNKNYADSVKGRFTISRDNSKNTLNLQMNSLRVEDTAVYYCARDRYSSGWDVFDYWGQGTLVTVSS
VL: DIQMTQSPSSVSASVGDRVTITCRASQDISSWLAWYQQQPGKAPKLQIYAASSLQSGVPSRFSGSGSGTDFTLTISSLQPEDFATYYCQQAKSFPPTFGQGTKVEIKR
B7: 4F9 (hybridoma clone supernatant) (antibody, V domains shown)
VH: QVQLQESGPGLVKPSGTLSLTCAVSGGSISSSNWWSWVRQPPGKGLEWIGEIYHSGSTSYNPSLKSRVTISVDKSKNQFSLKLSSVTAADTAVYYCARNDWGFPLDCWGQGTLVTVSS
VL: DIQMTQSPSSLSASVGDRVTITCRASQSISSYLNWYQQKPGKAPKLLIYAASSLQSGVPSRFSGSGSGTHFTLTISSLQPEDFATYYCQQSHNIPITFGQGTRLEIK
notes: Hybridoma supernatant
B8: 17F3 (hybridoma clone supernatant) (antibody, V domains shown)
VH: B1 VH
VL: DIQMTQSPSSVSASIGDRVTITCRASQDISTWFAWYQQKPGKAPKLLIYAASTLRSGVPSRFSGSGSGTDFTLTINSLQPEDFATYYCQQANSFPLTFGGGTKVEIK
notes: Hybridoma supernatant
B9: 2F9 (hybridoma clone supernatant) (antibody, V domains shown)
VH: B2 VH
VL: DIQMTQSPSSLSASIGDRVTITCRASQGIRNALGWYQQKPGKAPKRLIYAASNLQSGVPSRFSGSGSGTEFTLTISSLQPEDFATYYCLQHNSYPFTFGPGTKVEIK
notes: Hybridoma supernatant
B10: 9E2 (hybridoma clone supernatant) (antibody, V domains shown)
VH: B2 VH with D31N, L51I, S52N, N57S, K65R, N105S
VL: B9 VL with I15V, I29V, N53S
notes: Hybridoma supernatant
B11: 14B12 (hybridoma clone supernatant) (antibody, V domains shown)
VH: QVQLQESGPGLVKPSETLSLTCTVSGGSINTYYRSWIRQPPGKGLEWIGYIYYSGNTNYNPSLKSRVTISADTSKNQFSLNLISVTAADTAMYYCARAQYGEEAFDIWGQGTLVTVSS
VL: DIQMTQSPSSLSASVGDRVTITCRASQSITTYLNWYQQKPGKAPQLLIFAASRLQTGVPSRFSGSGSGTDFTLTISSLLPGDFATYYCQQSYNTPPTFGGGTKVEIK
notes: Hybridoma supernatant
B12: 19C7 (hybridoma clone supernatant) (antibody, V domains shown)
VH: B4 VH with F27I, S32G, A51S, R62S, N67S, T75S, T98A, Y100S, V102L, T103A
VL: DIQMTQSPSSLSASVGDRVTITCRASQSISNYLNWYQLKPGNAPKLLIFAASSLQSGVPSRFSGSGSGTDFTLTISSLQPEDFATYFCQRSYSTLTFGGGTKVEIK
notes: Hybridoma supernatant
B13: 13C7 (hybridoma clone supernatant) (antibody, V domains shown)
VH: B4 VH
VL: B12 VL with S30T, N31S, L38Q, N42K, F49Y, F87Y
notes: Hybridoma supernatant
B14: 10E11 (hybridoma clone supernatant) (antibody, V domains shown)
VH: EVQLVQSGTEVKKPGESLKISCKDSGYRFSSYWIGWVRQMPGKGLEWMGIIYPGDSDTRYSPSFQGQVTISADKSISTAYLQWRSLKASDTAMYYCARRGWVNYFDYWGQGTLVTVSS
VL: B8 VL with I15V, D28G, T31N, F33L, A34G, T53S, R55Q, N76S
notes: Hybridoma supernatant
B15: 1H10 (hybridoma clone supernatant) (antibody, V domains shown)
VH: B6 VH
VL: DIQMTQSPSSVSASVGDRVTITCRASQDISSWLAWYQQQPGKAPKLQIYAASSLQSGVPSRFSGSGSGTDFTLTISSLQPEDFATYYCQQAKSFPPTFGQGTKVEIK
notes: Hybridoma supernatant from mice encoding human heavy and kappa variable regions
B16: 15A4 (hybridoma clone supernatant) (antibody, V domains shown)
VH: B6 VH with V23A, T28N, T49A, I51V, K58Q, K76N, N80Y, V88A
VL: B15 VL with D28G, Q39K, Q47L, Y49F, D70G
notes: Hybridoma supernatant

The first experiment deals with T1, human CDH17 as originally expressed in cells (cell surface CDH17 on AsPC1, GP2d and other cancer cell lines) (human, UniProt Q12864 23-832). Nature of the experiment: cell-based or functional assay.
For B1, the “IC50 of indirect killing assay to evaluate the internalization in AsPC1 cells” value (“IC50 of indirect killing assay” for short) amounted to 80 pM.

For B2, the “IC50 of indirect killing assay” value turned out to be 140 pM.

With B3, the “IC50 of indirect killing assay” value amounted to 150 pM.

On to B4, for which the “IC50 of indirect killing assay” value stood at 90 pM.

Consider B5, for which the “IC50 of indirect killing assay” value was 90 pM.

On to B6, for which the “IC50 of indirect killing assay” value amounted to 190 pM.

The target of a further experiment is T2, BSA (UniProt P02769 25-607).
T2 construct: Control coating protein of the ELISA
T2 sequence (P02769 25-607 limits assumed): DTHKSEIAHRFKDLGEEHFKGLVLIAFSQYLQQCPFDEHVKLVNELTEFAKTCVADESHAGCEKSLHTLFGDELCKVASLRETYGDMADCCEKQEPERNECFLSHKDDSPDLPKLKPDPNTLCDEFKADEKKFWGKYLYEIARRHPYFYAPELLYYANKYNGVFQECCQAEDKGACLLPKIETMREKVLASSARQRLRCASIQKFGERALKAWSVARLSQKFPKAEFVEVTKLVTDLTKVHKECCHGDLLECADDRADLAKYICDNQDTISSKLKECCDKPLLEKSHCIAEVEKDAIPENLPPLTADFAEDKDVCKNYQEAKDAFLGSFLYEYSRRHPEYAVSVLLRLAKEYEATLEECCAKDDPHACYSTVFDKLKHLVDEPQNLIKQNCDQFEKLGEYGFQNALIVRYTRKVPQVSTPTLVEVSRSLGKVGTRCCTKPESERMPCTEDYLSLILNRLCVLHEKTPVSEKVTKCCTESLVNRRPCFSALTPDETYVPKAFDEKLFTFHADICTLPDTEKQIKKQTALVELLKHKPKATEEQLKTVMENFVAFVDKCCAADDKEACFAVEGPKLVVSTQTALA
Kind of experiment: ELISA, plate coated with BSA, hybridoma supernatant. The method, then: (§1) ELISA was performed using the DuoSet ELISA Ancillary Kit (R&D System, DY008). ELISA plates were coated with 1 μg/ml of human CDH17 His Tag (Sino biological, catalog number 11360-H08H), or BSA overnight. Excess unbound proteins were washed off by washing the plates three times with the wash buffer before blocking for 1 hour at room temperature. 100 μl CDH17 hybridoma supernatant was added in each well and incubated for 1 hour at room temperature. Excess unbound antibodies were washed off and 100 μl of 1:30000 diluted secondary antibody Goat anti-mouse IgG Fc-HRP (ab5870) was added to each well for another 1 hour. Plates were washed before the addition 50 μL of […] (color A and color B) according to manufacturer's protocol. The reactions were stopped using 25 μL of stop solution. Optical density at 450 nm of samples was measured by a microplate reader (PerkinElmer).
On the technique in general: ELISA stands for enzyme-linked immunosorbent assay.
The molecule B7 returned an OD450 of 0.051 OD450.

B8 registered an OD450 of 0.0425 OD450.

Molecule B9 returned an OD450 of 0.0718 OD450.

Take B10: the OD450 amounted to 0.0429 OD450.

For the molecule B11, the OD450 was found to be 0.041 OD450.

In the case of B12, the OD450 was 0.0468 OD450.

B13: the OD450 amounted to 0.0432 OD450.

As for B14, the OD450 was 0.0475 OD450.

The molecule B15 returned an OD450 of 0.0399 OD450.

B16: the OD450 was found to be 0.0431 OD450.

The target in a further experiment is T1, human CDH17 as originally expressed in …. Nature of the experiment: flow cytometry titration on CDH17 positive AsPC1 cells. The method, then:
To determine the binding of recombinant antibody to cell surface CDH17 receptors, cells were first harvested and resuspended in cell staining buffer (BioLegend, Cat #420201) at 1.3-1.5×10⁶ cells/mL. Then, the cells were treated with human Fc receptor blocking reagent (BioLegend, Cat #422302) on the ice for 10 min. The resulting cell suspension was aliquoted into 50 μL aliquots. […] The cells were incubated on the ice for 1 hour and then washed with cell staining buffer twice. 50 μL of secondary antibody (PE conjugated goat anti-human Fc, eBioscience™, 1:250 dilution) was added to each sample to resuspend the cells. The cells were incubated on the ice for another 20 min. Cells were subsequently washed twice with cell staining buffer and resuspended in 4% PFA to fix the cells. The samples were analyzed using iQue3 to measure the median fluorescence intensity using corresponding channels.
Background: In flow cytometry, cells or beads pass a laser one at a time.
One may read the Kd as a measure of binding affinity in units of concentration. A low value points to a tighter complex. As to B1, the affinity, expressed as Kd, was 740 pM.

The molecule B2 registered an equilibrium dissociation constant (Kd) of 170 pM.

Turning to B3, the dissociation constant (Kd) was 310 pM.

The molecule B4 showed a Kd of 280 pM.

Turning to B5, the Kd stood at 130 pM.

For B6, the Kd was found to be 310 pM.

For a further experiment, the target named is T2, BSA. Kind of experiment: ELISA, plate coated with 1 µg/ml BSA, hybridoma supernatant. The method, then:
as §1
Take B7: the binding result is given as “no binding”.

For B8, the binding result was “no binding”.

Take B9: the binding result is reported as “no binding”.

With B10, the binding result was “no binding”.

Consider B11, for which the binding result was “no binding”.

With B12, the binding result was “no binding”.

On to B13, for which the binding result was “no binding”.

B14: the binding result is on record as “no binding”.

In the case of B15, the binding result is given as “no binding”.

In the case of B16, the binding result was “no binding”.

A further experiment concerns the target T3, human CDH17 His Tag (Sino biological, catalog number 11360-H08H) (human, UniProt Q12864 23-787).
T3 construct: Bought recombinant protein; also called hCDH17; human CDH17 protein; not shown: His tag
Nature of the experiment: ELISA, plate coated with 1 µg/ml human CDH17 His Tag, hybridoma supernatant. The method, then: as §1
B7: the OD450 came out at 1.52 OD450.

With B8, the OD450 turned out to be 1.66 OD450.

In turn, B9 gave an OD450 of 1.72 OD450.

B10 displayed an OD450 of 1.48 OD450.

Molecule B11 displayed an OD450 of 1.88 OD450.

Molecule B12 came in with an OD450 of 1.84 OD450.

For the molecule B13, the OD450 amounted to 1.62 OD450.

Molecule B14 returned an OD450 of 1.48 OD450.

As to B15, the OD450 came to 1.79 OD450.

In the case of B16, the OD450 stood at 1.6 OD450.

Values taken from US20260232828A1, “LIGAND-CYTOTOXICITY DRUG CONJUGATES AND PHARMACEUTICAL USES THEREOF” (HANSOH BIO LLC, priority 2023, published 2026).
